Data set [1] deals with the molecule itself. Briefly: negative-staining electron microscopy; Drg1 hexamers assembled in vitro with ADP, AMPPNP, ADP/AMPPNP/benzo-diazaborine or ATP/benzo-diazaborine; 0.02 mg/mL, 2% uranyl acetate, carbon-coated copper grids.
Data set [2] concerns the molecule itself. The experiment in a line: cryo-EM structure; Drg1 E346Q/E617Q with ATP; GraFix (glycerol gradient with 0-0.05% glutaraldehyde); 50 mM HEPES-KOH pH 6.8, 150 mM KCl, 5 mM MgCl2, 1 mM DTT, 1 mM nucleotide; protomer with protomer in the hexamer.

The values that follow come from paper PMC9646744, “Structural dynamics of AAA + ATPase Drg1 and mechanism of benzo-diazaborine inhibition” (Nature Communications, 2022).

Changes are numbered by the printed parent chain. Names and notes keep the numbering of the source.

B1: Drg1 (wild type, S. cerevisiae) (enzyme, UniProt P32794 1-780, looked up)
chain: MAPKSSSSGSKKKSSASSNSADAKASKFKLPAEFITRPHPSKDHGKETCTAYIHPNVLSSLEINPGSFCTVGKIGENGILVIARAGDEEVHPVNVITLSTTIRSVGNLILGDRLELKKAQVQPPYATKVTVGSLQGYNILECMEEKVIQKLLDDSGVIMPGMIFQNLKTKAGDESIDVVITDASDDSLPDVSQLDLNMDDMYGGLDNLFYLSPPFIFRKGSTHITFSKETQANRKYNLPEPLSYAAVGGLDKEIESLKSAIEIPLHQPTLFSSFGVSPPRGILLHGPPGTGKTMLLRVVANTSNAHVLTINGPSIVSKYLGETEAALRDIFNEARKYQPSIIFIDEIDSIAPNRANDDSGEVESRVVATLLTLMDGMGAAGKVVVIAATNRPNSVDPALRRPGRFDQEVEIGIPDVDARFDILTKQFSRMSSDRHVLDSEAIKYIASKTHGYVGADLTALCRESVMKTIQRGLGTDANIDKFSLKVTLKDVESAMVDIRPSAMREIFLEMPKVYWSDIGGQEELKTKMKEMIQLPLEASETFARLGISAPKGVLLYGPPGCSKTLTAKALATESGINFLAVKGPEIFNKYVGESERAIREIFRKARSAAPSIIFFDEIDALSPDRDGSSTSAANHVLTSLLNEIDGVEELKGVVIVAATNRPDEIDAALLRPGRLDRHIYVGPPDVNARLEILKKCTKKFNTEESGVDLHELADRTEGYSGAEVVLLCQEAGLAAIMEDLDVAKVELRHFEKAFKGIARGITPEMLSYYEEFALRSGSSS
notes: Drg1, type II AAA+ ATPase encoded by AFG2, S. cerevisiae (genome of strain BY4741), full length; Hexamers assembled in vitro with ADP, AMPPNP, ADP/AMPPNP/benzo-diazaborine or ATP/benzo-diazaborine; stabilised by GraFix (glutaraldehyde) for cryo-EM; also called Drg1^WT; Drg1 hexamer; source: E. coli Transetta (DE3), purified (Ni-NTA, TEV cleavage, Mono Q, size-exclusion chromatography); not shown: …
B1: in data set [1], the stoichiometry N – broadly, a count of units in the complex or per binding partner – was 6.

B2: Drg1 E346Q/E617Q double mutant (Walker B motifs of D1 and D2) (enzyme, S. cerevisiae, UniProt P32794 1-780, looked up)
chain: B1 chain with E346Q, E617Q
notes: Drg1, type II AAA+ ATPase encoded by AFG2, S. cerevisiae, full length, with the Walker B mutations E346Q and E617Q; Incubated with 5 mM ATP before size-exclusion chromatography; the atomic model covers residues 29 to 777; also called mutant Drg1; double mutant Drg1; source: E. coli Transetta (DE3), purified (Ni-NTA, TEV cleavage, Mono Q, size-exclusion chromatography); not shown: His6, …
On to B2, for which the “stoichiometry N” value in data set [2] was 6.
